# B1: Human ASK1 catalytic (kinase) domain, homogeneously triphosphorylated (domain or fragment)
# chain: not shown
# modifications: phosphothreonine at 813, 838 and 842 (autophosphorylation sites identified by mass spectrometry)
# notes: Apoptosis signal-regulating kinase 1 (ASK1, MAP3K5), human, residues 659-951, gi|5174547; the same recombinant construct as m1, autophosphorylated; also called Tri-phosphorylated ASK1; triphosphorylated ASK1; source: recombinant protein treated with ATP/Mg2+ (autophosphorylated)
# B2: Human ASK1 catalytic (kinase) domain, residues 659-951, phosphatase-treated (domain or fragment)
# chain: not shown
# modifications: mixture of un- and monophosphorylated protein; Thr838 partially phosphorylated in the crystal
# notes: Apoptosis signal-regulating kinase 1 (ASK1, MAP3K5), human, residues 659-951 of the 1,374-residue protein, gi|5174547; Crystallised with 1 mM staurosporine; also called MAP3K5; ASK1 kinase domain; not shown: His6, N-terminal, cleaved
# How the values were obtained:
# [1] = target: the molecule itself; test: AUC; sedimentation velocity; 13 μM protein in 10 mM HEPES pH 7.4, 120 mM NaCl, 0.25% glycerol, 4°C, 40,000 rpm; c(s) and c(M) distributions (SEDFIT)
# [2] = target: the molecule itself; test: AUC; sedimentation equilibrium; protein at 6.5, 11.9 and 25.2 μM, 10,000 and 15,000 rpm; global fit to a self-association model; dimer to monomers
Protein,stoichiometry N [1],Kd [2]
B1,2,–
B2,2,220 ± 200 nM
